{"source": "patent US20230135471A1", "about": "“UBIQUITIN VARIANTS WITH IMPROVED AFFINITY FOR 53BP1” (Integrated DNA Technologies, Inc., priority 2021, published 2023)", "data": [{"target": "53BP1 fragment (a.a. 1221-1718) fused to an adenylate cyclase fragment (two-hybrid) (UniProt Q12888)", "test": "cell-based or functional assay", "units": {"Experiment 1 Average Enrichment": "log2", "Experiment 1 Rep 1 Enrichment": "log2", "Experiment 1 Rep 2 Enrichment": "log2", "Experiment 2 Average Enrichment": "log2", "Experiment 2 Rep 1 Enrichment": "log2", "Experiment 2 Rep 2 Enrichment": "log2", "Percent GFP Positive Rep 1": "%", "Percent GFP Positive Rep 2": "%", "Percent GFP Positive Rep 3": "%"}, "values": [{"substance": "i53 + P19K two-hybrid fusion (designed binder)", "Experiment 1 Average Enrichment": 1, "Experiment 1 Rep 1 Enrichment": 2.12, "Experiment 1 Rep 2 Enrichment": -0.12, "Experiment 2 Average Enrichment": -0.68, "Experiment 2 Rep 1 Enrichment": -0.26, "Experiment 2 Rep 2 Enrichment": -1.1}, {"substance": "i53 + I61L two-hybrid fusion (designed binder)", "Experiment 1 Average Enrichment": 1.06, "Experiment 1 Rep 1 Enrichment": 1.1, "Experiment 1 Rep 2 Enrichment": 1.02, "Experiment 2 Average Enrichment": 0.67, "Experiment 2 Rep 1 Enrichment": 0.75, "Experiment 2 Rep 2 Enrichment": 0.59, "Percent GFP Positive Rep 1": 15.9, "Percent GFP Positive Rep 2": 17.6, "Percent GFP Positive Rep 3": 17.2}, {"substance": "i53 + P38M two-hybrid fusion (designed binder)", "Experiment 1 Average Enrichment": -0.31, "Experiment 1 Rep 1 Enrichment": -2.07, "Experiment 1 Rep 2 Enrichment": 1.45, "Experiment 2 Average Enrichment": 1.25, "Experiment 2 Rep 1 Enrichment": 1.37, "Experiment 2 Rep 2 Enrichment": 1.13}, {"substance": "i53 + L67K two-hybrid fusion (designed binder)", "Experiment 1 Average Enrichment": 2.01, "Experiment 1 Rep 1 Enrichment": 2.08, "Experiment 1 Rep 2 Enrichment": 1.93, "Experiment 2 Average Enrichment": 0.89, "Experiment 2 Rep 1 Enrichment": 1.4, "Experiment 2 Rep 2 Enrichment": 0.39, "Percent GFP Positive Rep 1": 24.2, "Percent GFP Positive Rep 2": 11.2, "Percent GFP Positive Rep 3": 21.5}, {"substance": "i53 + R42F two-hybrid fusion (designed binder)", "Experiment 1 Average Enrichment": 1.88, "Experiment 1 Rep 1 Enrichment": 1.99, "Experiment 1 Rep 2 Enrichment": 1.77, "Experiment 2 Average Enrichment": 1.26, "Experiment 2 Rep 1 Enrichment": 1.4, "Experiment 2 Rep 2 Enrichment": 1.13}, {"substance": "i53 + N25L two-hybrid fusion (designed binder)", "Experiment 1 Average Enrichment": 0.43, "Experiment 1 Rep 1 Enrichment": 0.47, "Experiment 1 Rep 2 Enrichment": 0.39, "Experiment 2 Average Enrichment": 0.23, "Experiment 2 Rep 1 Enrichment": 0.26, "Experiment 2 Rep 2 Enrichment": 0.19}, {"substance": "i53 + Q41C two-hybrid fusion (designed binder)", "Experiment 1 Average Enrichment": 0.18, "Experiment 1 Rep 1 Enrichment": 0.22, "Experiment 1 Rep 2 Enrichment": 0.13, "Experiment 2 Average Enrichment": -0.03, "Experiment 2 Rep 1 Enrichment": -0.05, "Experiment 2 Rep 2 Enrichment": 0}, {"substance": "i53 + T12Y two-hybrid fusion (designed binder)", "Experiment 1 Average Enrichment": 0.25, "Experiment 1 Rep 1 Enrichment": 0.14, "Experiment 1 Rep 2 Enrichment": 0.36, "Experiment 2 Average Enrichment": 0.35, "Experiment 2 Rep 1 Enrichment": 0.52, "Experiment 2 Rep 2 Enrichment": 0.17}, {"substance": "i53 + L67T two-hybrid fusion (designed binder)", "Experiment 1 Average Enrichment": 0.09, "Experiment 1 Rep 1 Enrichment": 0.69, "Experiment 1 Rep 2 Enrichment": -0.52, "Experiment 2 Average Enrichment": 0.11, "Experiment 2 Rep 1 Enrichment": -0.3, "Experiment 2 Rep 2 Enrichment": 0.52}, {"substance": "i53 + T7C two-hybrid fusion (designed binder)", "Experiment 1 Average Enrichment": 1.2, "Experiment 1 Rep 1 Enrichment": 1.16, "Experiment 1 Rep 2 Enrichment": 1.23, "Experiment 2 Average Enrichment": 0.79, "Experiment 2 Rep 1 Enrichment": 0.9, "Experiment 2 Rep 2 Enrichment": 0.69}, {"substance": "i53 + M1S two-hybrid fusion (designed binder)", "Experiment 1 Average Enrichment": 0.38, "Experiment 1 Rep 1 Enrichment": 0.55, "Experiment 1 Rep 2 Enrichment": 0.21, "Experiment 2 Average Enrichment": 0.34, "Experiment 2 Rep 1 Enrichment": 0.27, "Experiment 2 Rep 2 Enrichment": 0.41}, {"substance": "i53 + E18H two-hybrid fusion (designed binder)", "Experiment 1 Average Enrichment": 1.17, "Experiment 1 Rep 1 Enrichment": 0.39, "Experiment 1 Rep 2 Enrichment": 1.96, "Experiment 2 Average Enrichment": 0.07, "Experiment 2 Rep 1 Enrichment": 0.24, "Experiment 2 Rep 2 Enrichment": -0.11}, {"substance": "i53 + R54C two-hybrid fusion (designed binder)", "Experiment 1 Average Enrichment": 0.06, "Experiment 1 Rep 1 Enrichment": 0.24, "Experiment 1 Rep 2 Enrichment": -0.12, "Experiment 2 Average Enrichment": -0.07, "Experiment 2 Rep 1 Enrichment": -0.43, "Experiment 2 Rep 2 Enrichment": 0.29}, {"substance": "i53 + P38Q two-hybrid fusion (designed binder)", "Experiment 1 Average Enrichment": -0.25, "Experiment 1 Rep 1 Enrichment": 0.85, "Experiment 1 Rep 2 Enrichment": -1.35, "Experiment 2 Average Enrichment": 0.5, "Experiment 2 Rep 1 Enrichment": 1.18, "Experiment 2 Rep 2 Enrichment": -0.17}, {"substance": "i53 + R54M two-hybrid fusion (designed binder)", "Experiment 1 Average Enrichment": 0.85, "Experiment 1 Rep 1 Enrichment": 0.82, "Experiment 1 Rep 2 Enrichment": 0.89, "Experiment 2 Average Enrichment": 0.56, "Experiment 2 Rep 1 Enrichment": 0.56, "Experiment 2 Rep 2 Enrichment": 0.55}, {"substance": "i53 + S49N two-hybrid fusion (designed binder)", "Experiment 1 Average Enrichment": 0.04, "Experiment 1 Rep 1 Enrichment": 0.31, "Experiment 1 Rep 2 Enrichment": -0.23, "Experiment 2 Average Enrichment": -0.35, "Experiment 2 Rep 1 Enrichment": -0.59, "Experiment 2 Rep 2 Enrichment": -0.11}, {"substance": "i53 + S65H two-hybrid fusion (designed binder)", "Experiment 1 Average Enrichment": 1.1, "Experiment 1 Rep 1 Enrichment": 0.69, "Experiment 1 Rep 2 Enrichment": 1.5, "Experiment 2 Average Enrichment": 1.16, "Experiment 2 Rep 1 Enrichment": 1.34, "Experiment 2 Rep 2 Enrichment": 0.98}, {"substance": "i53 + K48I two-hybrid fusion (designed binder)", "Experiment 1 Average Enrichment": 0.64, "Experiment 1 Rep 1 Enrichment": 0.5, "Experiment 1 Rep 2 Enrichment": 0.77, "Experiment 2 Average Enrichment": 0.42, "Experiment 2 Rep 1 Enrichment": 0.35, "Experiment 2 Rep 2 Enrichment": 0.49}, {"substance": "i53 + S65A two-hybrid fusion (designed binder)", "Experiment 1 Average Enrichment": 1.15, "Experiment 1 Rep 1 Enrichment": 1.29, "Experiment 1 Rep 2 Enrichment": 1.01, "Experiment 2 Average Enrichment": 0.95, "Experiment 2 Rep 1 Enrichment": 1.17, "Experiment 2 Rep 2 Enrichment": 0.73}, {"substance": "i53 + S49E two-hybrid fusion (designed binder)", "Experiment 1 Average Enrichment": 0.44, "Experiment 1 Rep 1 Enrichment": 0.84, "Experiment 1 Rep 2 Enrichment": 0.04, "Experiment 2 Average Enrichment": 0.81, "Experiment 2 Rep 1 Enrichment": 0.96, "Experiment 2 Rep 2 Enrichment": 0.67}, {"substance": "i53 + R54H two-hybrid fusion (designed binder)", "Experiment 1 Average Enrichment": 0.87, "Experiment 1 Rep 1 Enrichment": 0.78, "Experiment 1 Rep 2 Enrichment": 0.96, "Experiment 2 Average Enrichment": 0.49, "Experiment 2 Rep 1 Enrichment": 0.43, "Experiment 2 Rep 2 Enrichment": 0.55}, {"substance": "i53 + N25E two-hybrid fusion (designed binder)", "Experiment 1 Average Enrichment": 0.56, "Experiment 1 Rep 1 Enrichment": 0.28, "Experiment 1 Rep 2 Enrichment": 0.84, "Experiment 2 Average Enrichment": 0.62, "Experiment 2 Rep 1 Enrichment": 0.61, "Experiment 2 Rep 2 Enrichment": 0.64}, {"substance": "i53 + D32R two-hybrid fusion (designed binder)", "Experiment 1 Average Enrichment": 0.03, "Experiment 1 Rep 1 Enrichment": 0.61, "Experiment 1 Rep 2 Enrichment": -0.54, "Experiment 2 Average Enrichment": -0.46, "Experiment 2 Rep 1 Enrichment": -0.53, "Experiment 2 Rep 2 Enrichment": -0.39}, {"substance": "i53 + A46G two-hybrid fusion (designed binder)", "Experiment 1 Average Enrichment": 0.6, "Experiment 1 Rep 1 Enrichment": 0.48, "Experiment 1 Rep 2 Enrichment": 0.72, "Experiment 2 Average Enrichment": -0.17, "Experiment 2 Rep 1 Enrichment": 1.37, "Experiment 2 Rep 2 Enrichment": -1.71}, {"substance": "i53 + T7V two-hybrid fusion (designed binder)", "Experiment 1 Average Enrichment": 0.33, "Experiment 1 Rep 1 Enrichment": 0.24, "Experiment 1 Rep 2 Enrichment": 0.42, "Experiment 2 Average Enrichment": 0.02, "Experiment 2 Rep 1 Enrichment": -0.04, "Experiment 2 Rep 2 Enrichment": 0.09}]}]}
